Results from patent publication US20140120128A1.

Key:
Test in all cases: cell-based or functional assay
[1] = target: human TLR3 expressed on HEK293 cells (human) (UniProt O15455)
[2] = target: human TLR5 expressed on HEK293 cells (human) (UniProt O60602)
[3] = target: T1, human TLR8 expressed on HEK293 cells (human) (UniProt Q9NR97)
T1 sequence: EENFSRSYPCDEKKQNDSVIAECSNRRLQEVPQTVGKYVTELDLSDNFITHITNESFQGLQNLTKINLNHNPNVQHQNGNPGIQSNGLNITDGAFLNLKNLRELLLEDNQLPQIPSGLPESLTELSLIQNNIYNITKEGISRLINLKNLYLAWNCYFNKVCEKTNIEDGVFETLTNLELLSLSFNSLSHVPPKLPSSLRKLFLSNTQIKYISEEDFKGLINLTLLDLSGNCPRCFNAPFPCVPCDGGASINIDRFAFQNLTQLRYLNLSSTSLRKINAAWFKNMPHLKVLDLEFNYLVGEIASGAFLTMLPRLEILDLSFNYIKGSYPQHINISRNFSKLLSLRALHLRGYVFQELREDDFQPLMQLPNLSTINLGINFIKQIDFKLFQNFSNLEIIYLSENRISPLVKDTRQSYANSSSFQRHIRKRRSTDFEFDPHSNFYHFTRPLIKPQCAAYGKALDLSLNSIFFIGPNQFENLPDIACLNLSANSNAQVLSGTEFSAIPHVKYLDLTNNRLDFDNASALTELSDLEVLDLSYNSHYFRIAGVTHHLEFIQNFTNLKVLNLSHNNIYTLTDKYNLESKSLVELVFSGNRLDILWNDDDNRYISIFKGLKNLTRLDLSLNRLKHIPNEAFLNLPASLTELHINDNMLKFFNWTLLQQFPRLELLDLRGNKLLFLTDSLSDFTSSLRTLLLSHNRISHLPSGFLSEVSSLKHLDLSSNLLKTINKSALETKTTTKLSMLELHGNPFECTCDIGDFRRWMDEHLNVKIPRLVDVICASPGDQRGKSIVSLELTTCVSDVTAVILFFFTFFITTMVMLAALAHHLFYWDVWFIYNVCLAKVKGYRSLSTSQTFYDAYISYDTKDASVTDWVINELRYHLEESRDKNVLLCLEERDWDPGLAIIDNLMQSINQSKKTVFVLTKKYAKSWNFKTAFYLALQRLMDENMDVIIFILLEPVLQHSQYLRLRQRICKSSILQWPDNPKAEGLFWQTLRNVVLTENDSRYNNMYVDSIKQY

[4] = target: T2, human TLR7 expressed on HEK293 cells (human) (UniProt Q9NYK1)
T2 sequence: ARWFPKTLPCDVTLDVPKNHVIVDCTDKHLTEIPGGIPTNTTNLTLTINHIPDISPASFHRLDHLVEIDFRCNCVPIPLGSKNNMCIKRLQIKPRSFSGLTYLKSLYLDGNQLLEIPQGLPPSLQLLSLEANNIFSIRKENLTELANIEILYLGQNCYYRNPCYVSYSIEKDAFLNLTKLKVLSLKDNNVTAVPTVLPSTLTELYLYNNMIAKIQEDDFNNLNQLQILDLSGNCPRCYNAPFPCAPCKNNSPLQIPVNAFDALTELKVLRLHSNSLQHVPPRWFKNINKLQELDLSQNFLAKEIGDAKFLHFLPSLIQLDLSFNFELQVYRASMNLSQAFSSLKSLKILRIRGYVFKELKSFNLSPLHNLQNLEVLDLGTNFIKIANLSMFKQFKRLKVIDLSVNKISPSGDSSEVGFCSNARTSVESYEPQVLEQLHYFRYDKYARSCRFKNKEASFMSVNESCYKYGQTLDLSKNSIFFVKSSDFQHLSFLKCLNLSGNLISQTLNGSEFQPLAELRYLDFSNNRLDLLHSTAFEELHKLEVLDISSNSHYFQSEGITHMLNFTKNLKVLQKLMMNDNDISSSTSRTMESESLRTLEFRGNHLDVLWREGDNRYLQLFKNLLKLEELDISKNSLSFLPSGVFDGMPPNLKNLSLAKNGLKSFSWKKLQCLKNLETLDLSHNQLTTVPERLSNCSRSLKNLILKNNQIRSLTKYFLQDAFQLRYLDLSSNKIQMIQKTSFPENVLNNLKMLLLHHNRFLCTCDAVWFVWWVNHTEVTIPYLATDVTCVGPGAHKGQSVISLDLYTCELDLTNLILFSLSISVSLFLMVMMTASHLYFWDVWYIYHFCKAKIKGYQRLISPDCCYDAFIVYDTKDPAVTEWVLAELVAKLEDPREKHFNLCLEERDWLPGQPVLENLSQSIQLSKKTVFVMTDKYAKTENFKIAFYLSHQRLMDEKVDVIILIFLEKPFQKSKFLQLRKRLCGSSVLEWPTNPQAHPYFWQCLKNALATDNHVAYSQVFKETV

[5] = target: T3, human TLR9 expressed on HEK293 cells (human) (UniProt Q9NR96)
T3 sequence: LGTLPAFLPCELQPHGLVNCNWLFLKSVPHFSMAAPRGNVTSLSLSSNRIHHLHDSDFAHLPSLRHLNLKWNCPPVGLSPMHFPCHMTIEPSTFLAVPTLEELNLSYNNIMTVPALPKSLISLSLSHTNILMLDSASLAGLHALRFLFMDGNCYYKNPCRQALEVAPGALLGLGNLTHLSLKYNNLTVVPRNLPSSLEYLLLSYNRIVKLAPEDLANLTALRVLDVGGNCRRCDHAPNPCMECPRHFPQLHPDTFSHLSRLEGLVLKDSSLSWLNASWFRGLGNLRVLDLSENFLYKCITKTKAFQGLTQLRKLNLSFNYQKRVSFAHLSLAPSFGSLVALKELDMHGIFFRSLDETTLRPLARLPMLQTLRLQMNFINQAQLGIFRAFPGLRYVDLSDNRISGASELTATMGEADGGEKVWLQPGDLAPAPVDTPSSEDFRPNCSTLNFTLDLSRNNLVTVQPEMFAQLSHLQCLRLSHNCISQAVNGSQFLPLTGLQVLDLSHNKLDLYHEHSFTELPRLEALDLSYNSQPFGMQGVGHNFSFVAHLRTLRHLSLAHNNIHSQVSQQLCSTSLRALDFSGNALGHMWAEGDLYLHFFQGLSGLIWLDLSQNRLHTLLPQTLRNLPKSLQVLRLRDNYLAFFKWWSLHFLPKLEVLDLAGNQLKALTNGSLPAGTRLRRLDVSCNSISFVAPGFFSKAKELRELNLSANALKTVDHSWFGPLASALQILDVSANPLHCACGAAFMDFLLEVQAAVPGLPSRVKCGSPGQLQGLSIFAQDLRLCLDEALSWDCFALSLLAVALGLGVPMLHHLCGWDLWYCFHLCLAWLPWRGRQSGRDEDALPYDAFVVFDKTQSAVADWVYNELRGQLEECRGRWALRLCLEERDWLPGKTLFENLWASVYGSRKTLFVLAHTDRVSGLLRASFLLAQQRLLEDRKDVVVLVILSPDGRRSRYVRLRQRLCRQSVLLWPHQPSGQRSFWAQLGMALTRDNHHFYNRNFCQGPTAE

[6] = target: human TLR4 (MD2-CD14) expressed on HEK293 cells (human) (UniProt O00206)
Sequence of human TLR4 (MD2-CD14) expressed on HEK293 cells (human) (O00206 24-839 limits assumed, chain 1 of 3): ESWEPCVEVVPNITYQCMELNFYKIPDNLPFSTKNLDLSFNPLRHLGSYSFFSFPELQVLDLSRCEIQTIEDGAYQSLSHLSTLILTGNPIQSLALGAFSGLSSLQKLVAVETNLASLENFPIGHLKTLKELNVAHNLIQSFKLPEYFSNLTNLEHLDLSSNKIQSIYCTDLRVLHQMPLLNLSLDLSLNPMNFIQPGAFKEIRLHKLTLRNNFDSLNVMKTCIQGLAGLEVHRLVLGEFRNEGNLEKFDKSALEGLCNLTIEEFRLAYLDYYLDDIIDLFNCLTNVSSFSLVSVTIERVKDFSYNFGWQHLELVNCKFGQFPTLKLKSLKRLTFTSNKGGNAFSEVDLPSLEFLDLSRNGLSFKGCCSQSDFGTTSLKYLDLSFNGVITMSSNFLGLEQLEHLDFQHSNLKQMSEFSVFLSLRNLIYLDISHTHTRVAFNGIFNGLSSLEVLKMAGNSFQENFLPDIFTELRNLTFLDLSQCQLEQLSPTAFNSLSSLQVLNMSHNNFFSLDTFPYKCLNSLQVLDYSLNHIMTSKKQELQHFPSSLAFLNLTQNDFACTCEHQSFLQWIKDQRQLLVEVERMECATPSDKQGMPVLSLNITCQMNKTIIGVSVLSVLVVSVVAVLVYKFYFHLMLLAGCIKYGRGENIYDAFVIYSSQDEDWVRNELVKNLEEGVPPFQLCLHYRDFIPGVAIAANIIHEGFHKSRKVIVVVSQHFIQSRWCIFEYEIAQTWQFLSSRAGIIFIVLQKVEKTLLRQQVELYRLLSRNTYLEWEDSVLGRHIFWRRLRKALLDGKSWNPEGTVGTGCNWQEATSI
Sequence of human TLR4 (MD2-CD14) expressed on HEK293 cells (human) (Q9Y6Y9 19-160 limits assumed, chain 2 of 3, further chain): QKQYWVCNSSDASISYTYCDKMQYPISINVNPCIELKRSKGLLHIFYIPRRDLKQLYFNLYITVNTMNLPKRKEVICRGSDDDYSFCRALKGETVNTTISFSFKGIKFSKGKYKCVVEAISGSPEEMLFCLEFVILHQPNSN
Sequence of human TLR4 (MD2-CD14) expressed on HEK293 cells (human) (P08571 20-345 limits assumed, chain 3 of 3, further chain): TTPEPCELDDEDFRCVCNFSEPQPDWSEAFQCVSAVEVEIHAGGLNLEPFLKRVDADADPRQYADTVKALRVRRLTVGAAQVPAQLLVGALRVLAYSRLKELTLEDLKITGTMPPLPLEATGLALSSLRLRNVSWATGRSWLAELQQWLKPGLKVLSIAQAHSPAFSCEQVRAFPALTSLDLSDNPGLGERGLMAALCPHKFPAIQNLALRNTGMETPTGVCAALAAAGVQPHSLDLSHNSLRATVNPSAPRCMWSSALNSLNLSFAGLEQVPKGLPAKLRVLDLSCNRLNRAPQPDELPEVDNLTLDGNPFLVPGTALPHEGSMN

[7] = target: human TLR2 expressed on HEK293 cells (human) (UniProt O60603)
Sequence of human TLR2 expressed on HEK293 cells (human) (O60603 21-784): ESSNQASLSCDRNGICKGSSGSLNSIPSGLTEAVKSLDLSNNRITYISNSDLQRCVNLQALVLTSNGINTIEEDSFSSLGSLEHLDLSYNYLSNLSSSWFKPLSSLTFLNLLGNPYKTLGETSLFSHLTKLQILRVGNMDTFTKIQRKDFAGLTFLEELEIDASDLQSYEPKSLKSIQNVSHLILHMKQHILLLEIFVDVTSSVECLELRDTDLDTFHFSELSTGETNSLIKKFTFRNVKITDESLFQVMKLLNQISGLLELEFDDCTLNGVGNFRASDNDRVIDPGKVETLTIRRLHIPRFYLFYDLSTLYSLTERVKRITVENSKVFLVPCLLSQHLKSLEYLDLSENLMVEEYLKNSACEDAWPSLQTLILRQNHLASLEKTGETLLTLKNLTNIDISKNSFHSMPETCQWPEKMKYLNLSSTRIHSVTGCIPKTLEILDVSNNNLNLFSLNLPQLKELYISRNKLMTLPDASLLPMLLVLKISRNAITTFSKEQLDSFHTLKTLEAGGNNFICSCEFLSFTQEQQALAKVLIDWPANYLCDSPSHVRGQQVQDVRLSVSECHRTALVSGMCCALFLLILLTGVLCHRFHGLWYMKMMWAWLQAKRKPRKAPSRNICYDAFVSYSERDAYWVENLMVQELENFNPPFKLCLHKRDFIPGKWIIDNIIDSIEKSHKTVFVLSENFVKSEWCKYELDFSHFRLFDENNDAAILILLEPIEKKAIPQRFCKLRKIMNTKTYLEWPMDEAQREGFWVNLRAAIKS

Sequence of human TLR5 expressed on HEK293 cells (human) (O60602 21-858): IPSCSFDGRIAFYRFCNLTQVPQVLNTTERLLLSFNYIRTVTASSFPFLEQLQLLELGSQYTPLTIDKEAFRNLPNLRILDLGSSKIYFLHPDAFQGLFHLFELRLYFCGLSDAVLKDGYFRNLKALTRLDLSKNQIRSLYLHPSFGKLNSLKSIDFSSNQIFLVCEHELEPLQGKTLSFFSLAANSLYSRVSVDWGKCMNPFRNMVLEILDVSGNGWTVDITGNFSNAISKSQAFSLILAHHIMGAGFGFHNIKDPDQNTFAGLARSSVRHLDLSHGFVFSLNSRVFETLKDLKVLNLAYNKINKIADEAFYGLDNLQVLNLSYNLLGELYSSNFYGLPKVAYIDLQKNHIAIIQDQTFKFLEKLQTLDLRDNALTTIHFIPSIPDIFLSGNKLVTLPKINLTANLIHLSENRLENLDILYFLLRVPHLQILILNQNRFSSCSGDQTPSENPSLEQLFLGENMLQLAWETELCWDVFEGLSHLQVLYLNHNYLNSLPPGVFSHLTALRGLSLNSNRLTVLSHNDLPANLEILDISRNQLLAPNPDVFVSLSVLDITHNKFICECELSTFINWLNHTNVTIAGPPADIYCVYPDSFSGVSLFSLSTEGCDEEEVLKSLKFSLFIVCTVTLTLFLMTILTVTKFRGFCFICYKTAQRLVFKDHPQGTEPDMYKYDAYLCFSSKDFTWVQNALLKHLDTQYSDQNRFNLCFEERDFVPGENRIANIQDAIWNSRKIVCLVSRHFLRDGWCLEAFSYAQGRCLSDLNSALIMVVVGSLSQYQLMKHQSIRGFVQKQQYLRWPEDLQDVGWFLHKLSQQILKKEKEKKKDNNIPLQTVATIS

B1: truncated YscF (protein)
chain: LKKPADDANKAVNDSIAALKDKPDNPALLADLQHSINKWSVIYNINSTIVRSMKDLMQGILQKFP
SEAP reporter expression in HEK293 cells, screening 1 [1]: 0.097
SEAP reporter expression in HEK293 cells, screening 2 [1]: 0.101
SEAP reporter expression in HEK293 cells, screening 1 [2]: 0.15
SEAP reporter expression in HEK293 cells, screening 2 [2]: 0.154
SEAP reporter expression in HEK293 cells, screening 1 [3]: 0.099
SEAP reporter expression in HEK293 cells, screening 2 [3]: 0.105
SEAP reporter expression in HEK293 cells, screening 1 [4]: 0.091
SEAP reporter expression in HEK293 cells, screening 2 [4]: 0.097
SEAP reporter expression in HEK293 cells, screening 1 [5]: 0.079
SEAP reporter expression in HEK293 cells, screening 2 [5]: 0.079
SEAP reporter expression in HEK293 cells, screening 1 [6]: 2
SEAP reporter expression in HEK293 cells, screening 2 [6]: 1.9
SEAP reporter expression in HEK293 cells, screening 1 [7]: 2.02
SEAP reporter expression in HEK293 cells, screening 2 [7]: 1.98
